{"source": "paper PMC4359790", "target": "bovine fetuin (bovine) (UniProt P12763)", "assay": "Corning Epic label-free (resonant waveguide grating, Enspire reader)"}
{"substance": "recombinant hemagglutinin (rHA) of A/Hangzhou/3/2013 (H7N9) (natural protein)", "values": [{"measurement": "response (change in wavelength) at 20 μg/ml rHA", "result": 80, "unit": "pm"}]}
{"substance": "recombinant hemagglutinin (rHA) of B/Brisbane/60/2008 (natural protein)", "values": [{"measurement": "response (change in wavelength) at 20 μg/ml rHA", "result": 140, "unit": "pm"}]}
{"substance": "recombinant hemagglutinin (rHA) of A/Brisbane/59/2007 (H1N1) (natural protein; modification not given)", "values": [{"measurement": "response (change in wavelength) at 20 μg/ml rHA", "result": 80, "unit": "pm"}]}
